Measured values reported in patent US6451759 (University of California, dated 2002).

Target: T1, Fas on Jurkat T cells (human, UniProt P25445 26-335)
T1 sequence (looked up): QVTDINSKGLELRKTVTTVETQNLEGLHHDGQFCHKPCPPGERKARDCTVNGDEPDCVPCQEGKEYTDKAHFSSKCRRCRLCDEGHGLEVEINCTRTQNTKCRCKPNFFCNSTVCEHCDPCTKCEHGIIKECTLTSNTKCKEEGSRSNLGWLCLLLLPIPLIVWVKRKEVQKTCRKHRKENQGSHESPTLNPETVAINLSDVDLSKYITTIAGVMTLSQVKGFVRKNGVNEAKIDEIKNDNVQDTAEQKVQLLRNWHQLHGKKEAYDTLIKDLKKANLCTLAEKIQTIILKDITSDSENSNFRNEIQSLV
Experiment: cell-based or functional assay

SQMHTASSLEKQIGHPSPPPEKKELRKVAHLTGKSN (ligand) [deletion mutant 2 of human FasL]
percent specific 51Cr release from Jurkat target cells (cytotoxicity assay, transfected COS-7 effector cells): ~2 fold over wild-type FasL
